Experimental data: US20260049138A1 (Chugai, published 2026)

Target: T1, CD3ε homodimer protein (human, UniProt P07766 23-126, limits assumed)
T1 construct: also called CD3 (CD3ε)
Test: SPR Biacore T200, CD3ε homodimer on chip;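 note: Light-chain single-residue variant antibodies injected over amine-coupled CD3ε homodimer on a CM4 chip at 25 °C, bound amount divided by that of the GLS3000-containing antibody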

T1 sequence (P07766 23-126 limits assumed): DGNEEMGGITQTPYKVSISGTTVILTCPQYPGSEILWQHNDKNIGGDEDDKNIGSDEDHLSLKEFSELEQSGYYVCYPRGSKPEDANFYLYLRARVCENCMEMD

Binder	ratio of amount bound vs unaltered GLS3000
GLS3000 K50T one-arm antibody (antibody, human IgG1, kappa, L234A L235A, N297A, name in Kabat numbering) heavy: QVQLVESGGGVVQPGRSLRLSCAASGFTFSNAWMHWVRQAPGKGLEWVAQIKAKSNNYATYYAESVKGRFTISRDDSKNSLYLQMNSLKTEDTAVYYCRYVHYGAYYGVDAWGQGTTVTVSSASTKGPSVFPLAPSSKSTSGGTAALGCLVKDYFPEPVTVSWNSGALTSGVHTFPAVLQSSGLYSLSSVVTVPSSSLGTQTYICNVNHKPSNTKVDKKVEPKSCDKTHTCPPCPAPEAAGGPSVFLFPPKPKDTLMISRTPEVTCVVVDVSHEDPEVKFNWYVDGVEVHNAKTKPREEQYASTYRVVSVLTVLHQDWLNGKEYKCKVSNKALPAPIEKTISKAKGQPREPQVYTLPPSRCELTKNQVSLSCAVKGFYPSDIAVEWESNGQPENNYKTTPPVLDSDGSFFLVSKLTVDKSRWQQGNVFSCSVMHEALHNHYTQKSLSLSPDYKDDDDK EPKSSDKTHTCPPCPAPELLGGPSVFLFPPKPKDTLMISRTPEVTCVVVDVSHEDPEVKFNWYVDGVEVHNAKTKPREEQYNSTYRVVSVLTVLHQDWLNGKEYKCKVSNKALPAPIEKTISKAKGQPREPQVCTLPPSRDELTKNQVSLWCLVKGFYPSDIAVEWESNGQPENNYKTTPPVLDSDGSFFLYSKLTVDKSRWQQGNVFSCSVMHEALHNRYTQKSLSLSP light: DIVMTQSPLSLPVTPGEPASISCRSSQSLVHSNRNTYLHWYQQKPGQAPRLLIYTVSNRFSGVPDRFSGSGSGTDFTLKISRVEAEDVGVYYCGQGTQVPYTFGQGTKLEIKRTVAAPSVFIFPPSDEQLKSGTASVVCLLNNFYPREAKVQWKVDNALQSGNSQESVTEQDSKDSTYSLSSTLTLSKADYEKHKVYACEVTHQGLSSPVTKSFNRGEC	0.19
GLS3000 K50Y one-arm antibody (antibody, human IgG1, kappa, L234A L235A, N297A, name in Kabat numbering) heavy: QVQLVESGGGVVQPGRSLRLSCAASGFTFSNAWMHWVRQAPGKGLEWVAQIKAKSNNYATYYAESVKGRFTISRDDSKNSLYLQMNSLKTEDTAVYYCRYVHYGAYYGVDAWGQGTTVTVSSASTKGPSVFPLAPSSKSTSGGTAALGCLVKDYFPEPVTVSWNSGALTSGVHTFPAVLQSSGLYSLSSVVTVPSSSLGTQTYICNVNHKPSNTKVDKKVEPKSCDKTHTCPPCPAPEAAGGPSVFLFPPKPKDTLMISRTPEVTCVVVDVSHEDPEVKFNWYVDGVEVHNAKTKPREEQYASTYRVVSVLTVLHQDWLNGKEYKCKVSNKALPAPIEKTISKAKGQPREPQVYTLPPSRCELTKNQVSLSCAVKGFYPSDIAVEWESNGQPENNYKTTPPVLDSDGSFFLVSKLTVDKSRWQQGNVFSCSVMHEALHNHYTQKSLSLSPDYKDDDDK EPKSSDKTHTCPPCPAPELLGGPSVFLFPPKPKDTLMISRTPEVTCVVVDVSHEDPEVKFNWYVDGVEVHNAKTKPREEQYNSTYRVVSVLTVLHQDWLNGKEYKCKVSNKALPAPIEKTISKAKGQPREPQVCTLPPSRDELTKNQVSLWCLVKGFYPSDIAVEWESNGQPENNYKTTPPVLDSDGSFFLYSKLTVDKSRWQQGNVFSCSVMHEALHNRYTQKSLSLSP light: DIVMTQSPLSLPVTPGEPASISCRSSQSLVHSNRNTYLHWYQQKPGQAPRLLIYYVSNRFSGVPDRFSGSGSGTDFTLKISRVEAEDVGVYYCGQGTQVPYTFGQGTKLEIKRTVAAPSVFIFPPSDEQLKSGTASVVCLLNNFYPREAKVQWKVDNALQSGNSQESVTEQDSKDSTYSLSSTLTLSKADYEKHKVYACEVTHQGLSSPVTKSFNRGEC	0.24
GLS3000 K74T one-arm antibody (antibody, human IgG1, kappa, L234A L235A, N297A, name in Kabat numbering) heavy: QVQLVESGGGVVQPGRSLRLSCAASGFTFSNAWMHWVRQAPGKGLEWVAQIKAKSNNYATYYAESVKGRFTISRDDSKNSLYLQMNSLKTEDTAVYYCRYVHYGAYYGVDAWGQGTTVTVSSASTKGPSVFPLAPSSKSTSGGTAALGCLVKDYFPEPVTVSWNSGALTSGVHTFPAVLQSSGLYSLSSVVTVPSSSLGTQTYICNVNHKPSNTKVDKKVEPKSCDKTHTCPPCPAPEAAGGPSVFLFPPKPKDTLMISRTPEVTCVVVDVSHEDPEVKFNWYVDGVEVHNAKTKPREEQYASTYRVVSVLTVLHQDWLNGKEYKCKVSNKALPAPIEKTISKAKGQPREPQVYTLPPSRCELTKNQVSLSCAVKGFYPSDIAVEWESNGQPENNYKTTPPVLDSDGSFFLVSKLTVDKSRWQQGNVFSCSVMHEALHNHYTQKSLSLSPDYKDDDDK EPKSSDKTHTCPPCPAPELLGGPSVFLFPPKPKDTLMISRTPEVTCVVVDVSHEDPEVKFNWYVDGVEVHNAKTKPREEQYNSTYRVVSVLTVLHQDWLNGKEYKCKVSNKALPAPIEKTISKAKGQPREPQVCTLPPSRDELTKNQVSLWCLVKGFYPSDIAVEWESNGQPENNYKTTPPVLDSDGSFFLYSKLTVDKSRWQQGNVFSCSVMHEALHNRYTQKSLSLSP light: DIVMTQSPLSLPVTPGEPASISCRSSQSLVHSNRNTYLHWYQQKPGQAPRLLIYKVSNRFSGVPDRFSGSGSGTDFTLTISRVEAEDVGVYYCGQGTQVPYTFGQGTKLEIKRTVAAPSVFIFPPSDEQLKSGTASVVCLLNNFYPREAKVQWKVDNALQSGNSQESVTEQDSKDSTYSLSSTLTLSKADYEKHKVYACEVTHQGLSSPVTKSFNRGEC	0.84
GLS3000 L27bE one-arm antibody (antibody, human IgG1, kappa, L234A L235A, N297A, name in Kabat numbering) heavy: QVQLVESGGGVVQPGRSLRLSCAASGFTFSNAWMHWVRQAPGKGLEWVAQIKAKSNNYATYYAESVKGRFTISRDDSKNSLYLQMNSLKTEDTAVYYCRYVHYGAYYGVDAWGQGTTVTVSSASTKGPSVFPLAPSSKSTSGGTAALGCLVKDYFPEPVTVSWNSGALTSGVHTFPAVLQSSGLYSLSSVVTVPSSSLGTQTYICNVNHKPSNTKVDKKVEPKSCDKTHTCPPCPAPEAAGGPSVFLFPPKPKDTLMISRTPEVTCVVVDVSHEDPEVKFNWYVDGVEVHNAKTKPREEQYASTYRVVSVLTVLHQDWLNGKEYKCKVSNKALPAPIEKTISKAKGQPREPQVYTLPPSRCELTKNQVSLSCAVKGFYPSDIAVEWESNGQPENNYKTTPPVLDSDGSFFLVSKLTVDKSRWQQGNVFSCSVMHEALHNHYTQKSLSLSPDYKDDDDK EPKSSDKTHTCPPCPAPELLGGPSVFLFPPKPKDTLMISRTPEVTCVVVDVSHEDPEVKFNWYVDGVEVHNAKTKPREEQYNSTYRVVSVLTVLHQDWLNGKEYKCKVSNKALPAPIEKTISKAKGQPREPQVCTLPPSRDELTKNQVSLWCLVKGFYPSDIAVEWESNGQPENNYKTTPPVLDSDGSFFLYSKLTVDKSRWQQGNVFSCSVMHEALHNRYTQKSLSLSP light: DIVMTQSPLSLPVTPGEPASISCRSSQSEVHSNRNTYLHWYQQKPGQAPRLLIYKVSNRFSGVPDRFSGSGSGTDFTLKISRVEAEDVGVYYCGQGTQVPYTFGQGTKLEIKRTVAAPSVFIFPPSDEQLKSGTASVVCLLNNFYPREAKVQWKVDNALQSGNSQESVTEQDSKDSTYSLSSTLTLSKADYEKHKVYACEVTHQGLSSPVTKSFNRGEC	0.17
GLS3000 L27bD one-arm antibody (antibody, human IgG1, kappa, L234A L235A, N297A, name in Kabat numbering) heavy: QVQLVESGGGVVQPGRSLRLSCAASGFTFSNAWMHWVRQAPGKGLEWVAQIKAKSNNYATYYAESVKGRFTISRDDSKNSLYLQMNSLKTEDTAVYYCRYVHYGAYYGVDAWGQGTTVTVSSASTKGPSVFPLAPSSKSTSGGTAALGCLVKDYFPEPVTVSWNSGALTSGVHTFPAVLQSSGLYSLSSVVTVPSSSLGTQTYICNVNHKPSNTKVDKKVEPKSCDKTHTCPPCPAPEAAGGPSVFLFPPKPKDTLMISRTPEVTCVVVDVSHEDPEVKFNWYVDGVEVHNAKTKPREEQYASTYRVVSVLTVLHQDWLNGKEYKCKVSNKALPAPIEKTISKAKGQPREPQVYTLPPSRCELTKNQVSLSCAVKGFYPSDIAVEWESNGQPENNYKTTPPVLDSDGSFFLVSKLTVDKSRWQQGNVFSCSVMHEALHNHYTQKSLSLSPDYKDDDDK EPKSSDKTHTCPPCPAPELLGGPSVFLFPPKPKDTLMISRTPEVTCVVVDVSHEDPEVKFNWYVDGVEVHNAKTKPREEQYNSTYRVVSVLTVLHQDWLNGKEYKCKVSNKALPAPIEKTISKAKGQPREPQVCTLPPSRDELTKNQVSLWCLVKGFYPSDIAVEWESNGQPENNYKTTPPVLDSDGSFFLYSKLTVDKSRWQQGNVFSCSVMHEALHNRYTQKSLSLSP light: DIVMTQSPLSLPVTPGEPASISCRSSQSDVHSNRNTYLHWYQQKPGQAPRLLIYKVSNRFSGVPDRFSGSGSGTDFTLKISRVEAEDVGVYYCGQGTQVPYTFGQGTKLEIKRTVAAPSVFIFPPSDEQLKSGTASVVCLLNNFYPREAKVQWKVDNALQSGNSQESVTEQDSKDSTYSLSSTLTLSKADYEKHKVYACEVTHQGLSSPVTKSFNRGEC	0.17
GLS3000 K107E one-arm antibody (antibody, human IgG1, kappa, L234A L235A, N297A, name in Kabat numbering) heavy: QVQLVESGGGVVQPGRSLRLSCAASGFTFSNAWMHWVRQAPGKGLEWVAQIKAKSNNYATYYAESVKGRFTISRDDSKNSLYLQMNSLKTEDTAVYYCRYVHYGAYYGVDAWGQGTTVTVSSASTKGPSVFPLAPSSKSTSGGTAALGCLVKDYFPEPVTVSWNSGALTSGVHTFPAVLQSSGLYSLSSVVTVPSSSLGTQTYICNVNHKPSNTKVDKKVEPKSCDKTHTCPPCPAPEAAGGPSVFLFPPKPKDTLMISRTPEVTCVVVDVSHEDPEVKFNWYVDGVEVHNAKTKPREEQYASTYRVVSVLTVLHQDWLNGKEYKCKVSNKALPAPIEKTISKAKGQPREPQVYTLPPSRCELTKNQVSLSCAVKGFYPSDIAVEWESNGQPENNYKTTPPVLDSDGSFFLVSKLTVDKSRWQQGNVFSCSVMHEALHNHYTQKSLSLSPDYKDDDDK EPKSSDKTHTCPPCPAPELLGGPSVFLFPPKPKDTLMISRTPEVTCVVVDVSHEDPEVKFNWYVDGVEVHNAKTKPREEQYNSTYRVVSVLTVLHQDWLNGKEYKCKVSNKALPAPIEKTISKAKGQPREPQVCTLPPSRDELTKNQVSLWCLVKGFYPSDIAVEWESNGQPENNYKTTPPVLDSDGSFFLYSKLTVDKSRWQQGNVFSCSVMHEALHNRYTQKSLSLSP light: DIVMTQSPLSLPVTPGEPASISCRSSQSLVHSNRNTYLHWYQQKPGQAPRLLIYKVSNRFSGVPDRFSGSGSGTDFTLKISRVEAEDVGVYYCGQGTQVPYTFGQGTKLEIERTVAAPSVFIFPPSDEQLKSGTASVVCLLNNFYPREAKVQWKVDNALQSGNSQESVTEQDSKDSTYSLSSTLTLSKADYEKHKVYACEVTHQGLSSPVTKSFNRGEC	0.94
